Measurements taken from patent US20220362357A1, “Synergistic Combinations of Amino Acid Depletion Agent Sensitizers (AADAS) and Amino Acid Depletion Agents (AADA), and Therapeutic Methods of Use Thereof” (STICHTING RADBOUD UNIVERSITAIR MEDISCH CENTRUM, priority 2018, published 2022).

Experiments:
Experiment in all cases: PDX ALL cells co-cultured on hTERT MSCs, ASNase x ibrutinib dilution matrix, microscopy
Type in all cases: cell-based, human
PDX m3810 = details: ibrutinib B0=0 to B9=100
Procedure: (§1) After 2-4 months these mice developed full blown leukemia with an immunophenotype and genetic composition that in the large majority of cases is identical to the original material at the time of injection.
(§2) Briefly, hTERT immortalized MSCs were seeded in either a 384 wells format (microscopy) or a 96 wells format (7AAD staining) and allowed to settle for 24 hours prior to the addition of ALL xenografts. […] After 3 and 7 days of incubation, cell death was analyzed using microscopy using live cells staining or flowcytometry using 7AAD to discriminate between live or dead cells.

PDX m1095 = details: m1095 (3 d), ibrutinib B0=0 to B9=100
Procedure: as §1, §2

PDX m3657 = details: m3657 (7 d), ibrutinib B0=0 to B9=100
Procedure: as §1, §2

PDX m1600 = details: m1600 (3 d), ibrutinib B0=0 to B9=100
Procedure: as §1, §2

PDX m877 = details: m877 (3 d), ibrutinib B0=0 to B9=100
Procedure: as §1, §2

PDX m4136 = details: m4136 (3 d), ibrutinib B0=0 to B9=100
Procedure: as §1, §2

B1: ASNase: native E. coli ASNase (NCBI WP_000394140.1), used in the in vitro studies (protein, UniProt P00805 23-348, looked up)
L-asparaginase 2: LPNITILATGGTIAGGGDSATKSNYTVGKVGVENLVNAVPQLKDIANVKGEQVVNIGSQDMNDNVWLTLAKKINTDCDKTDGFVITHGTDTMEETAYFLDLTVKCDKPVVMVGAMRPSTSMSADGPFNLYNAVVTAADKASANRGVLVVMNDTVLDGRDVTKTNTTDVATFKSVNYGPLGYIHNGKIDYQRTPARKHTSDTPFDVSKLNELPKVGIVYNYANASDLPAKALVDAGYDGIVSAGVGNGNLYKSVFDTLATAAKTGTAVVRSSRVPTGATTQDAEVDDAKYGFVASGTLNPQKARVLLQLALTQTKDPQQIQQIFNQY
live cells by automated microscopy (table names no quantity) (PDX m3810; m3810 (3 d), ASNase A1=0.01): 1232
live cells by automated microscopy (table names no quantity) (PDX m3810; m3810 (3 d), ASNase A2=0.03): 2209
live cells by automated microscopy (table names no quantity) (PDX m3810; m3810 (3 d), ASNase A3=0.1): 1405
live cells by automated microscopy (table names no quantity) (PDX m3810; m3810 (3 d), ASNase A4=0.3): 1982
live cells by automated microscopy (table names no quantity) (PDX m3810; m3810 (3 d), ASNase A5=1): 1472
live cells by automated microscopy (table names no quantity) (PDX m3810; m3810 (3 d), ASNase A6=3): 1497
live cells by automated microscopy (table names no quantity) (PDX m3810; m3810 (3 d), ASNase A7=10): 1054
live cells by automated microscopy (table names no quantity) (PDX m3810; m3810 (3 d), ASNase A8=32): 268
live cells by automated microscopy (table names no quantity) (PDX m3810; m3810 (3 d), ASNase A9 (A=100)): 8
live cells by automated microscopy (table names no quantity) (PDX m3810; m3810 (7 d), ASNase A1=0.01): 1776
live cells by automated microscopy (table names no quantity) (PDX m3810; m3810 (7 d), ASNase A2=0.03): 1752
live cells by automated microscopy (table names no quantity) (PDX m3810; m3810 (7 d), ASNase A3=0.1): 1563
live cells by automated microscopy (table names no quantity) (PDX m3810; m3810 (7 d), ASNase A4=0.3): 1519
live cells by automated microscopy (table names no quantity) (PDX m3810; m3810 (7 d), ASNase A5=1): 1136
live cells by automated microscopy (table names no quantity) (PDX m3810; m3810 (7 d), ASNase A6=3): 1251
live cells by automated microscopy (table names no quantity) (PDX m3810; m3810 (7 d), ASNase A7=10): 686
live cells by automated microscopy (table names no quantity) (PDX m3810; m3810 (7 d), ASNase A8=32): 87
live cells by automated microscopy (table names no quantity) (PDX m3810; m3810 (7 d), ASNase A9 (A=100)): 4
live cells by automated microscopy (table names no quantity) (PDX m1095; ASNase A1=0.01): 2935
live cells by automated microscopy (table names no quantity) (PDX m1095; ASNase A2=0.03): 2914
live cells by automated microscopy (table names no quantity) (PDX m1095; ASNase A3=0.1): 3089
live cells by automated microscopy (table names no quantity) (PDX m1095; ASNase A4=0.3): 3205
live cells by automated microscopy (table names no quantity) (PDX m1095; ASNase A5=1): 2579
live cells by automated microscopy (table names no quantity) (PDX m1095; ASNase A6=3): 549
live cells by automated microscopy (table names no quantity) (PDX m1095; ASNase A7=10): 2033
live cells by automated microscopy (table names no quantity) (PDX m1095; ASNase A8=32): 238
live cells by automated microscopy (table names no quantity) (PDX m1095; ASNase A9 (A=100)): 30
live cells by automated microscopy (table names no quantity) (PDX m3657; ASNase A1=0.01): 3562
live cells by automated microscopy (table names no quantity) (PDX m3657; ASNase A2=0.03): 4473
live cells by automated microscopy (table names no quantity) (PDX m3657; ASNase A3=0.1): 4173
live cells by automated microscopy (table names no quantity) (PDX m3657; ASNase A4=0.3): 1159
live cells by automated microscopy (table names no quantity) (PDX m3657; ASNase A5=1): 3935
live cells by automated microscopy (table names no quantity) (PDX m3657; ASNase A6=3): 3317
live cells by automated microscopy (table names no quantity) (PDX m3657; ASNase A7=10): 4220
live cells by automated microscopy (table names no quantity) (PDX m3657; ASNase A8=32): 723
live cells by automated microscopy (table names no quantity) (PDX m3657; ASNase A9 (A=100)): 17
live cells by automated microscopy (table names no quantity) (PDX m1600; ASNase A1=0.01): 4146
live cells by automated microscopy (table names no quantity) (PDX m1600; ASNase A2=0.03): 4603
live cells by automated microscopy (table names no quantity) (PDX m1600; ASNase A3=0.1): 3714
live cells by automated microscopy (table names no quantity) (PDX m1600; ASNase A4=0.3): 3134
live cells by automated microscopy (table names no quantity) (PDX m1600; ASNase A5=1): 4045
live cells by automated microscopy (table names no quantity) (PDX m1600; ASNase A6=3): 4366
live cells by automated microscopy (table names no quantity) (PDX m1600; ASNase A7=10): 3730
live cells by automated microscopy (table names no quantity) (PDX m1600; ASNase A8=32): 487
live cells by automated microscopy (table names no quantity) (PDX m1600; ASNase A9 (A=100)): 4
live cells by automated microscopy (table names no quantity) (PDX m877; ASNase A1=0.01): 5090
live cells by automated microscopy (table names no quantity) (PDX m877; ASNase A2=0.03): 4877
live cells by automated microscopy (table names no quantity) (PDX m877; ASNase A3=0.1): 4455
live cells by automated microscopy (table names no quantity) (PDX m877; ASNase A4=0.3): 4789
live cells by automated microscopy (table names no quantity) (PDX m877; ASNase A5=1): 5008
live cells by automated microscopy (table names no quantity) (PDX m877; ASNase A6=3): 5125
live cells by automated microscopy (table names no quantity) (PDX m877; ASNase A7=10): 4350
live cells by automated microscopy (table names no quantity) (PDX m877; ASNase A8=32): 1205
live cells by automated microscopy (table names no quantity) (PDX m877; ASNase A9 (A=100)): 2
live cells by automated microscopy (table names no quantity) (PDX m4136; ASNase A1=0.01): 1992
live cells by automated microscopy (table names no quantity) (PDX m4136; ASNase A2=0.03): 1998
live cells by automated microscopy (table names no quantity) (PDX m4136; ASNase A3=0.1): 1980
live cells by automated microscopy (table names no quantity) (PDX m4136; ASNase A4=0.3): 1892
